Experiments:
MS2 coat protein [1] = test: apparent KD of MS2 coat protein; designed switch direction (-1 OFF switch, 1 ON switch): 1; higher = weaker reporter binding
Method in brief: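 For each design, the apparent KD is the median over clusters of curves fitted to normalised cluster fluorescence. Clusters held RNA switches with common flanks, transcribed on Illumina chips by stalled E. coli RNA polymerase. These were titrated with SNAP-549-labelled MS2 coat protein, doubling from 0.7 or 1.5 nM to 3 µM, without input, with 200 uM small-molecule ligand, or with an oligonucleotide input.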

MS2 coat protein [2] = test: apparent KD of MS2 coat protein; higher = weaker reporter binding; details: Eterna round: R107
Method in brief: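 Designed RNA switches were transcribed on-chip from Illumina sequencing clusters. SNAP-549-labelled MS2 coat protein was titrated onto them in twofold steps from 0.7 or 1.5 nM to 3 µM in 100 mM Tris-HCl pH 7.5, 80 mM KCl, 4 mM MgCl2, either without or with constant ligand. Apparent KD reflects the per-design median of normalised cluster binding-curve fits.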

[3] = Eterna round: R95, input ligand: FMN 200 uM
[4] = Eterna round: R95, input ligand: microRNA oligo, concentration not stated
[5] = Eterna round: R95, input ligand: none
[6] = input ligand: microRNA oligo, concentration not stated
[7] = input ligand: theophylline 20 uM
[8] = input ligand: theophylline 2 mM
[9] = input ligand: tryptophan 2.4 mM

Sequence | apparent KD of MS2 coat protein (MS2 coat protein [2]; input ligand: arginine 13.2 mM) [nM] | apparent KD of MS2 coat protein (MS2 coat protein [2]; [7]) [nM] | apparent KD of MS2 coat protein (MS2 coat protein [2]; [8]) [nM] | apparent KD of MS2 coat protein (MS2 coat protein [2]; input ligand: none) [nM] | apparent KD of MS2 coat protein (MS2 coat protein [2]; [9]) [nM] | further results
AGUGCAGCCUGAGCUGCACAAAAGCAUGUACAUGAGGAUCACCCAUGUCAUGUACAAGCUUUUUGCUCGUCUUAAAA [Mat - hsa-mir-208a - Mod of JL - D20] (puzzle: Sensor for hsa-mir-208a) | – | – | – | – | – | apparent KD of MS2 coat protein (MS2 coat protein [1]; [3]): 529 nM; apparent KD of MS2 coat protein (MS2 coat protein [1]; [4]): 15.4 nM; apparent KD of MS2 coat protein (MS2 coat protein [1]; [5]): 688 nM
UGCUAUAGUAUAUUGGUGCAAGCUUUUUGACAUGAGGAUCACCCAUGUACUCGUCUUAAGCGCAGUCCGUAGACUGC (puzzle: Sensor for hsa-mir-208a) | – | – | – | – | – | apparent KD of MS2 coat protein (MS2 coat protein [1]; [3]): 84.5 nM; apparent KD of MS2 coat protein (MS2 coat protein [1]; [4]): 13.8 nM; apparent KD of MS2 coat protein (MS2 coat protein [1]; [5]): 89.9 nM
CUCAAAACAAGUUGCAGUGUUCGUCUUUAACAUGAGGAUCACCCAUGUAAUAACCCGGUGGAAGCGCUCGGGCCACC [Gereerle] (puzzle: Sensor for hsa-mir-208a) | – | – | – | – | – | apparent KD of MS2 coat protein (MS2 coat protein [1]; [3]): 25.7 nM; apparent KD of MS2 coat protein (MS2 coat protein [1]; [4]): 15.5 nM; apparent KD of MS2 coat protein (MS2 coat protein [1]; [5]): 26.1 nM
GGACGUCGAUAAUAUAACUUCACAUGAGGAUCACCCAUGUCACAGGAUAUGGAUCCUAAUUGGAUCCAGAAGGGUGCGACGUCC [Fiskers NG3ss - 36] (Eterna round: R96, puzzle: Same State NG 3) | – | – | – | – | – | apparent KD of MS2 coat protein (MS2 coat protein [1]; input ligand: FMN 200 uM): 20.7 nM; apparent KD of MS2 coat protein (MS2 coat protein [1]; [6]): 61.8 nM; apparent KD of MS2 coat protein (MS2 coat protein [1]; input ligand: none): 88.8 nM
UCGAGCGUACUUGCAGACAUGAGGAUCACCCAUGUAAAUGGGAAGGAUAUGGUACCGUUUCGGUACCAGAAGGUCCUAAGUGCU [salish99_SSNG3_r04_304] (Eterna round: R96, puzzle: Same State NG 3) | – | – | – | – | – | apparent KD of MS2 coat protein (MS2 coat protein [1]; input ligand: FMN 200 uM): 166 nM; apparent KD of MS2 coat protein (MS2 coat protein [1]; [6]): 862 nM; apparent KD of MS2 coat protein (MS2 coat protein [1]; input ligand: none): 1440 nM
CUGAAAUGUCAAGGAUAUCACGUCGAUUAGACGUGAGAAGGUGAUCUACACAUGAGGAUCACCCAUGUGUUACGUGGGAGUCAG [Brourd's SSNG1/1-A2 mod 18] (Eterna round: R96, puzzle: Same State NG 1) | – | – | – | – | – | apparent KD of MS2 coat protein (MS2 coat protein [1]; input ligand: FMN 200 uM): 82.1 nM; apparent KD of MS2 coat protein (MS2 coat protein [1]; [6]): 104 nM; apparent KD of MS2 coat protein (MS2 coat protein [1]; input ligand: none): 171 nM
GGUCCCUACGCACAGGAUAUUCUUUUGGCAACAUGAGGAUCACCCAUGUGUGCCGAUCAUGGUUAGAAGAAGGGUGGUAAGGACG [Qucesosobe] (puzzle: Same State 2) | – | – | – | – | – | apparent KD of MS2 coat protein (MS2 coat protein [1]; [3]): 9.76 nM; apparent KD of MS2 coat protein (MS2 coat protein [1]; [4]): 10.8 nM; apparent KD of MS2 coat protein (MS2 coat protein [1]; [5]): 12.2 nM
GCCAUCGUAUGAGGAUAUGGCACCGAAACGGUGCCAGAAGGCAUGUCAAUAGACAUGAGGAUCACCCAUGUAUUAUCGAUGGCA [Mat - Same State NG 1 - JL mod - D90] (Eterna round: R96, puzzle: Same State NG 1) | – | – | – | – | – | apparent KD of MS2 coat protein (MS2 coat protein [1]; [6]): 278 nM
CUCAAACAUGAGGAUCACCCAUGUUUUUUCAUGGGAGGAUAUCUAAGUUCAUUAUAUUCAGGAGAAGGCCUAUCUC [× ×•×ª×• ×ž×“×™× ×” × ×—×ª-06] (puzzle: Same State 1) | – | – | – | – | – | apparent KD of MS2 coat protein (MS2 coat protein [1]; [3]): 54.5 nM; apparent KD of MS2 coat protein (MS2 coat protein [1]; [4]): 36 nM; apparent KD of MS2 coat protein (MS2 coat protein [1]; [5]): 30.3 nM
ACAUGAGGAUCACCCAUGUAUAGAAUUGAAUGUUAAGAUACGUAGGAUAUCGAGAUUAGUAUGAUCGAGAAGGACGAUUAGAUA [JR_SSNG3_Sub064] (Eterna round: R96, puzzle: Same State NG 3) | – | – | – | – | – | apparent KD of MS2 coat protein (MS2 coat protein [1]; input ligand: FMN 200 uM): 12.6 nM; apparent KD of MS2 coat protein (MS2 coat protein [1]; [6]): 16.6 nM; apparent KD of MS2 coat protein (MS2 coat protein [1]; input ligand: none): 20.3 nM
UGGCUCAGACGAGGAUAUGAUCAUGGCGCUUCGGCGCAUACAUGAGGAUCACCCAUGUAGGGUGAUCAGAAGGUGUCUGAGCCA [SSNG2/8-B2] (Eterna round: R96, puzzle: Same State NG 2) | – | – | – | – | – | apparent KD of MS2 coat protein (MS2 coat protein [1]; input ligand: FMN 200 uM): 90.9 nM; apparent KD of MS2 coat protein (MS2 coat protein [1]; [6]): 578 nM; apparent KD of MS2 coat protein (MS2 coat protein [1]; input ligand: none): 1000 nM
AUCAUAAUAGACUCGUUAGAUUAUAUGGAACGAGGACCGGUACGGCCGCCACUCGUGAUGUACAUGAGGAUCACCCAUGUUAGCA [JR_SSTryptoA_Sub002] | 13.1 | 17.4 | 17.3 | – | – | –
UGUAUGUGAUCUGAUACCAGAGUGAAUAAACGCGAAAGCGCCUGAGGAUCACCCUGGUAACUCCCUUGGCAGCAGAUCGCAUACU | 119 | 789 | 74.5 | 569 | 1390 | –
AAAGAUUCCUGAACGCCGCAUACCGAUGAUACCAGCCAACGGAAAGGCCCUUGGCAGCAUUAAACAUGAGGAUCACCCAUGUCUA [theeternabot_exclusion_MS2_Theo_A_43] | 11.4 | 15 | – | – | 12.1 | –
UUGGUACAUGAGGAUCACCCAUGUACUGAAGGAGCGGGACGAAUCUCAGGUAGGUCGCAGACAUGAGGAUCACCCAUGUAUGGCU [Exclusion Arginine A GF 17] | 10.2 | 14.6 | 13.1 | 12.7 | 12.3 | –
GGGCGACAUGAGGAUCACCCAUGUGUCGAUACCAGUAUGAAUUUCUACCCUUGGCAGCGACGACACGGUUAUUUGUGCACUUCGA [theeternabot_sameState_MS2_Theo_A_5] | 77.5 | 114 | – | – | 95.6 | –
ACAUGUUGGUGGUAUCUACGAAGGCGGAAACGAGGACCGGUACGGCCGCCACUCGGCGACAUGAGGAUCACCCAUGUGGUUAAGA [Exclusion - Tryptophan A (Freestyle 6)] | 21.5 | 118 | 131 | – | – | –

Sequence | apparent KD of MS2 coat protein (MS2 coat protein [2]; input ligand: arginine 13.2 mM) [nM] | apparent KD of MS2 coat protein (MS2 coat protein [2]; [7]) [nM] | apparent KD of MS2 coat protein (MS2 coat protein [2]; [8]) [nM] | apparent KD of MS2 coat protein (MS2 coat protein [2]; input ligand: none) [nM] | apparent KD of MS2 coat protein (MS2 coat protein [2]; [9]) [nM] | further results
UUAUAUUAUCGAAGGAGCGUCACAUGAGGAUCACCCAUGUACAUGAGGAUCACCCAUGUGUGGCAGGUAGGUCGCGAUAUAUAAC [Exclusion Arginine B GF9] | 120 | 250 | 301 | – | 327 | –
CGGUUUGUGAUGGAUACCAGCAGAGUGAAUGUUUAUCCUGACAUGAGGAUCACCCAUGUGUGCCCUUGGCAGCUGUUGUGGGCUG [8.Z] | 54.4 | 100 | – | – | 63.7 | –
AAACGCCACGGAAGGAGCGACAUGAGGAUCACCCAUGUAGAUUUGGCGGAUGCACCCUCCUGUCAGGUAGGUCGCCGUGCGCUAA [XArg-B24] | 51.8 | 90.2 | 99.9 | 61 | 100 | –
GUGCGGUUUGAUGAUACCAGAUGUGGUGGGAACAUGAGGAUCACCCAUGUUGUGAAACAGGUCCCUUGGCAGCAUGAGUGAGCUU [TheoB-ms2@32-1] | 97.3 | 255 | 290 | 103 | 55.5 | –
AGGACCAGGAACAUGGGUGAACUGGUCCAACGAGGACCGGUACGGCCGCCACUCGAAUAAACAUGAGGAUCACCCAUGUAAUAAU [T''-M-T'-T-MS2] | 83.3 | 296 | 442 | 327 | 210 | –
GAGGCACGGUCGGCCGCCACUACAGCAGUGGUCCGCCAAGCGAGGUACAUGAGGAUCACCCAUGUUAGGACCGGGACCUGUUUUU [theeternabot_exclusion_MS2_Trp_B_27] | 20.2 | 24.6 | 25.5 | – | – | –
CGCGGGCCACAUGAGGAUCACCCAUGUGAAGGAGCGGCGAAUAAGCCAGGUAGGUCGCGCAUGAAUAAAUCAUGUAGGUGGCGAA [XArg-A 10 V1&2] | 16.4 | 22.8 | 21.6 | – | 20.2 | –
AAAAUAAAACGUGCAAAAUCCUAAUGUGAAGGAGCGCACGAAAGUGCAGGUAGGUCGCACAUGAGGAUCACCCAUGUAGCACGAA [MAT - Exclusion Arginine A - Mod of Eli - D1] | 60.1 | 221 | 367 | 300 | 230 | –
AGCAGAUCCCAGCGAAAGCUGGGAUCUGCACGAGGACCGGUACGGCCGCCACUCGAGGACAUGAGGAUCACCCAUGUACCGGUCA [Glorfindel] | 174 | 64.6 | 238 | 75.8 | 78.3 | –
AGAACCCAAGAGGAUACCAGAACGACAAUCAAAUCUUUUUACAUGAGGAUCACCCAUGUUUUCCCUUGGCAGCCUCAUGCACGAC [theeternabot_exclusion_MS2_Theo_B_43] | 47.1 | 108 | – | – | 59.6 | –
ACGAUAGGACCUGAGGAUCACCCUGGUGAUACCAGCCUGGAAACAGGCCCUUGGCAGCACAAAUACUCCAAUAACCUAUCGAAUA [TheoAX 13 #MicroSwitchBubble #AlternativeMS2] | 245 | 698 | 1100 | 611 | 1070 | –
CAAUAUAUAGCGGCCGCCACUUACUCAUGAGGUAACAACAUGAGGAUCACCCAUGUUUGAGGAUCAAGGACCGGGCUAUAUAUUG [AstrosSSTryB#6] | 22.2 | 31.9 | 32.2 | – | – | –
CAAACAUGAGGAUCACCCAUGUAAACCGAAGGAGCGACGCAUAAGUCAGGUAGGUCGCGGAAGAUAAAAUAGAACACUGGGCACA [Same State Arginine A GF1] | 18.2 | 19.2 | 17.3 | 17.7 | 19.1 | –
UGUAUGUGAUCUGAUACCAGUGACACGAAAGUGAAUCGCUUGAGGAUCACCCAAGUAAAACACCCUUGGCAGCAGAUCGCAUACU [Full moving switch bubble 1] | 20.3 | 23.5 | 25 | 15.6 | 15.6 | –
ACGACGCAUAGUGAUACCAGUAGAACAUGAGGAUCACCCAUGUCAGAUAUGUUCUAAUACUGCCCUUGGCAGCACUAUGCGUCAG [SSTheo B #4] | 144 | 344 | – | – | 299 | –
CCUAUGACAUGAGGAUCACCCAUGUUGGAUACCAGCGCAUGAGGACGCCCUUGGCAGCCAAUGAACAUGAGGAUACAUGAGGAUC [Same State Theophylline A 4] | 30.2 | 69.7 | – | – | 41.6 | –

Source: the supplement of paper PMC9170038
